This is an account of results in US20240059757A1 (VIR BIOTECHNOLOGY, published 2024).

For orientation: Kd means the concentration at which binding is half-saturated. A lower Kd goes with higher affinity. A word on the koff: it is the first-order rate constant of dissociation. Read a low koff as slow dissociation. Usually kon stands for a measure of how fast the partners come together. The low end stands for slow association, the high end for fast association.

For experiment [1], the target named is T1, SARS-CoV RBD (Sino Biological) (SARS-CoV, UniProt P59594 306-527). As to the kind of experiment: BLI. In general terms: Biolayer interferometry detects binding as a change in optical thickness at a sensor tip.
Experiment [2] has as its target T2, SARS-CoV Spike protein (SARS-CoV, UniProt P59594 14-1255). As to the kind of experiment: cell-based or functional assay.
In experiment [3] the target is T1, SARS-CoV RBD (Sino Biological).
The target of experiment [4] is WIV-1 spike protein (on VSV pseudovirus) (WIV-1). Description: cell-based or functional assay.
In experiment [5] the target is T2, SARS-CoV Spike protein. Description: cell-based or functional assay. The source holds these as a separate data set.
Experiment [6] concerns the target PANG/GD spike protein (PANG/GD). As to the kind of experiment: cell-based or functional assay.
The target in experiment [7] is PANG/GX spike protein (PANG/GX). As to the kind of experiment: cell-based or functional assay.
For experiment [8], the target named is T1, SARS-CoV RBD (Sino Biological). As to the kind of experiment: BLI. This is another data set of the same source.

Read-outs that look alike come from different tables or passages of the source.

B1: S2X259 variant antibody, VH SEQ ID NO 408 / VL SEQ ID NO 442 (antibody, V domains shown)
VH: QVQLVQSGAEVKKPGSSVKVSCKASGGIFNTYTISWVRQAPGQGLEWMGRIILMSGMANYAQKIQGRVTITADKSTSTAYMELTSLRSDDTAVYYCARGFNGNYYGWGDDDAFDISGQGTLVTVYS
VL: QTVLTQPPSVSGAPGQRVTISCTGSNSNIGAGYDVHWYQQLPGTAPKLLISGNSNRPSGVPDRFSGSKSGTSASLAITGLQAEDEADYYCQSYDSSLSGPNWVFGGGTKLTVL
As for B1, in experiment [1], the affinity, expressed as Kd, was 0.397 nM. The “neutralization IC50” value in experiment [2] came to 0.0531 µg/mL.

B2: S2X259 variant antibody, VH SEQ ID NO 460 / VL SEQ ID NO 445 (antibody, V domains shown)
VH: QVQLVQSGAEVKKPGSSVKVSCKASGGIFNTYTISWVRQAPGQGLEWMGRIILISGIANYAQKIQGRVTITADKSTSTAYMELTSLRSDDTAVYYCARGFNGNYYGWGDDDAFDIWGQGTLVTVSS
VL: QTVLTQPPSVSGAPGQRVTISCTGSNSNIGAGYDVHWYQQLPGTAPKLLIVGNSNRPSGVPDRFSGSKSGTSASLAITGLQAEDEADYYCQSYDSSLSGPNWVFGGGTKLTVL
On to B2, for which, in experiment [3], the affinity, expressed as Kd, was 1.59 nM; the dissociation rate constant (koff) is 0.000621 s⁻¹; the kon amounted to 391000 M⁻¹ s⁻¹.

B3: S2X259 variant antibody, VH SEQ ID NO 459 / VL SEQ ID NO 445 (antibody, V domains shown)
VH: QVQLVQSGAEVKKPGSSVKVSCKASGGIFNTYTISWVRQAPGQGLEWMGRIILMSGKANYAQKIQGRVTITADKSTSTAYMELTSLRSDDTAVYYCARGFNGNYYGWGDDDAFDIWGQGTLVTVSS
VL: QTVLTQPPSVSGAPGQRVTISCTGSNSNIGAGYDVHWYQQLPGTAPKLLIVGNSNRPSGVPDRFSGSKSGTSASLAITGLQAEDEADYYCQSYDSSLSGPNWVFGGGTKLTVL
In experiment [3], B3 gave a Kd of 0.792 nM, a koff of 0.000273 s⁻¹ and a kon of 345000 M⁻¹ s⁻¹.

B4: S2X259 variant antibody, VH SEQ ID NO 408 / VL SEQ ID NO 443 (antibody, V domains shown)
VH: QVQLVQSGAEVKKPGSSVKVSCKASGGIFNTYTISWVRQAPGQGLEWMGRIILMSGMANYAQKIQGRVTITADKSTSTAYMELTSLRSDDTAVYYCARGFNGNYYGWGDDDAFDISGQGTLVTVYS
VL: QTVLTQPPSVSGAPGQRVTISCTGSNSNIGAGYDVHWYQQLPGTAPKLLIAGNSNRPSGVPDRFSGSKSGTSASLAITGLQAEDEADYYCQSYDSSLSGPNWVFGGGTKLTVL
B4 displayed a Kd in experiment [1] of 0.521 nM. The “neutralization IC50” value in experiment [4] was less than 0.1 µg/mL; in experiment [5], less than 0.1 µg/mL; in experiment [6] it was less than 0.1 µg/mL; in experiment [7] it was less than 0.1 µg/mL; in experiment [2] it was 0.0353 µg/mL.

B5: S2X259 variant antibody, VH SEQ ID NO 448 / VL SEQ ID NO 412 (antibody, V domains shown)
VH: QVQLVQSGAEVKKPGSSVKVSCKASGGIFSTYTISWVRQAPGQGLEWMGRIILMSGMANYAQKIQGRVTITADKSTSTAYMELTSLRSDDTAVYYCARGFNGNYYGWGDDDAFDISGQGTLVTVYS
VL: QTVLTQPPSVSGAPGQRVTISCTGSNSNIGAGYDVHWYQQLPGTAPKLLICGNSNRPSGVPDRFSGSKSGTSASLAITGLQAEDEADYYCQSYDSSLSGPNWVFGGGTKLTVL
Consider B5, for which the binding result in experiment [1] is “no binding”.

B6: S2X259 variant antibody, VH SEQ ID NO 458 / VL SEQ ID NO 445 (antibody, V domains shown)
VH: QVQLVQSGAEVKKPGSSVKVSCKASGGIFNTYTISWVRQAPGQGLEWMGRIILMSGMANYAQKIQGRVTITADKSTSTAYMELTSLRSDDTAVYYCARGFNGNYYGWGDDDAFDIWGQGTLVTVSS
VL: QTVLTQPPSVSGAPGQRVTISCTGSNSNIGAGYDVHWYQQLPGTAPKLLIVGNSNRPSGVPDRFSGSKSGTSASLAITGLQAEDEADYYCQSYDSSLSGPNWVFGGGTKLTVL
In experiment [8], B6 registered a Kd of 0.455 nM, a koff of 0.000173 s⁻¹ and a kon of 380000 M⁻¹ s⁻¹.

B7: S2X259 variant antibody, VH SEQ ID NO 408 / VL SEQ ID NO 444 (antibody, V domains shown)
VH: QVQLVQSGAEVKKPGSSVKVSCKASGGIFNTYTISWVRQAPGQGLEWMGRIILMSGMANYAQKIQGRVTITADKSTSTAYMELTSLRSDDTAVYYCARGFNGNYYGWGDDDAFDISGQGTLVTVYS
VL: QTVLTQPPSVSGAPGQRVTISCTGSNSNIGAGYDVHWYQQLPGTAPKLLIYGNSNRPSGVPDRFSGSKSGTSASLAITGLQAEDEADYYCQSYDSSLSGPNWVFGGGTKLTVL
B7 registered a Kd in experiment [1] of 1.34 nM. In experiment [2], the “neutralization IC50” value amounted to 0.0811 µg/mL.

B8: S2X259 variant antibody, VH SEQ ID NO 446 / VL SEQ ID NO 412 (antibody, V domains shown)
VH: QVQLVQSGAEVKKPGSSVKVSCKASGGIFNTYTISWVRQAPGQGLEWMGRIILISGIANYAQKIQGRVTITADKSTSTAYMELTSLRSDDTAVYYCARGFNGNYYGWGDDDAFDISGQGTLVTVYS
VL: QTVLTQPPSVSGAPGQRVTISCTGSNSNIGAGYDVHWYQQLPGTAPKLLICGNSNRPSGVPDRFSGSKSGTSASLAITGLQAEDEADYYCQSYDSSLSGPNWVFGGGTKLTVL
In experiment [1], B8 yielded a Kd of 5.58 nM.

B9: S2X259 variant antibody, VH SEQ ID NO 408 / VL SEQ ID NO 445 (antibody, V domains shown)
VH: QVQLVQSGAEVKKPGSSVKVSCKASGGIFNTYTISWVRQAPGQGLEWMGRIILMSGMANYAQKIQGRVTITADKSTSTAYMELTSLRSDDTAVYYCARGFNGNYYGWGDDDAFDISGQGTLVTVYS
VL: QTVLTQPPSVSGAPGQRVTISCTGSNSNIGAGYDVHWYQQLPGTAPKLLIVGNSNRPSGVPDRFSGSKSGTSASLAITGLQAEDEADYYCQSYDSSLSGPNWVFGGGTKLTVL
With B9, the figures for the Kd in experiment [1] and in experiment [8] were 0.53 nM and 0.176 nM, respectively. The molecule also yielded a koff in experiment [8] of approximately 7.24e-05 s⁻¹. For the same molecule, the kon in experiment [8] was found to be 411000 M⁻¹ s⁻¹. Also, the “neutralization IC50” value in experiment [4] is less than 0.1 µg/mL; in experiment [5], less than 0.1 µg/mL; in experiment [6], less than 0.1 µg/mL; in experiment [7], less than 0.1 µg/mL; in experiment [2], 0.036 µg/mL.
